Experimental data from the supplement of paper PMC10567573.

B1: TNXB (parent)
chain: FSEIRETSAKVNWMPPPSRADSFK
B2: PBXIP1 (parent)
chain: LQQLRARLQGLEADCVRGPDGVCL

Variants of: B1
Assay: protein stability index of a GFP-peptide fusion (GPS, HEK-293T) (PSI 1-6); higher = more stable
Details: c terminus: a fixed tail appended
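Further: lentivirally expressed fusions sorted by FACS into six bins by GFP to DsRed ratio, PSI derived from sequencing read proportions per bin multiplied by bin number.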

Variant | protein stability index
S22W | 2.62
S22M | 2.79
S22N | 3.38
S22P | 3.36
S22K | 3.58
S22G | 2.97
S22F | 2.39
S22C | 3.29
S22H | 3.27
S22D | 3.62
S22T | 3.26
S22Q | 3.42
S22I | 3.38
S22A | 3.32
S22E | 3.69
S22Y | 3.32
S22V | 2.94
S22R | 3.95
S22L | 3.22
F23T | 4.06
F23G | 3.24
F23P | 4.55
F23M | 3.82

Variant | protein stability index
F23H | 4.12
F23R | 4.44
F23Y | 3.09
F23C | 4.22
F23N | 4.1
F23K | 4.12
F23W | 3.32
F23V | 4.07
F23A | 4.04
F23E | 4.33
F23S | 3.89
F23I | 3.5
F23D | 4.56
F23Q | 3.58
F23L | 3.91
A20S | 3.5
A20T | 2.8
A20N | 3.27
A20D | 3.88
A20P | 3.13
A20W | 2.92
A20G | 3.24
A20E | 3.6

Variant | protein stability index
A20V | 2.46
A20H | 3.45
A20K | 3.8
A20Q | 3.27
A20C | 3.71
A20Y | 2.93
A20L | 2.9
A20R | 3.61
A20M | 2.79
A20F | 2.73
A20I | 3.05
K24Q | 3.33
K24R | 3.29
K24Y | 2.64
K24T | 3.37
K24N | 3.43
K24C | 2.94
K24V | 2.63
K24H | 2.73
K24W | 1.69
K24I | 2.44
K24E | 3.21
K24L | 2.42

Variant | protein stability index
K24D | 3.41
K24P | 3.14
K24G | 3.35
K24M | 2.48
K24A | 2.92
K24F | 2.47
K24S | 3.29
R19W | 2.18
R19S | 3.73
R19V | 3.38
R19N | 3.85
R19P | 3.7
R19L | 2.65
R19G | 3.43
R19F | 2.49
R19Q | 3.6
R19K | 3.6
R19Y | 3.19
R19H | 3.15
R19M | 3.12
R19E | 4.2
R19T | 3.71
R19I | 3.12

Variant | protein stability index
D21P | 3.61
D21K | 3.76
D21A | 3.17
D21G | 3.52
D21Q | 3.5
D21T | 2.6
D21S | 3.62
D21I | 3.05
D21Y | 3.01
D21N | 3.34
D21H | 3.13
D21C | 2.79
D21M | 3.41
D21L | 3.06
D21R | 3.52
D21F | 2.02
D21E | 3.79
D21V | 3.28
D21W | 2.45

Variants of: B2
Assay: as above
Details: c terminus: a fixed tail appended

Variant | protein stability index
L8V | 1.99
L8W | 2.24
L8D | 3.58
L8E | 5.35
L8P | 3.56
L8T | 3.43
L8K | 3.57
L8N | 3.94
L8Q | 3.36
L8M | 2.05
L8I | 2.84
L8F | 2.29
C15S | 2.16
C15Y | 2.13
C15D | 2.65
C15I | 1.87
C15G | 1.96
C15Q | 1.99
C15N | 1.95
C15K | 2.29
C15A | 2.6
C15H | 1.81
C15L | 2.5
C15T | 2.18
C15W | 2

Variant | protein stability index
R5I | 2.42
R5L | 1.17
R5Y | 2.34
R5S | 2.76
R5M | 1.84
R5F | 2.14
R5N | 2.87
R5C | 1.24
R5E | 3.78
R5G | 2.78
R5P | 2.98
R5T | 3.04
R5K | 2.2
R5D | 4.08
R5H | 2.61
L11I | 1.93
L11T | 3.01
L11S | 3.09
L11W | 2.78
L11E | 3.75
L11G | 4.24
L11N | 3.09
L11K | 3.69
L11H | 2.41
L11Q | 3.97

Variant | protein stability index
L11R | 2.88
L11D | 4.28
L11A | 2.46
L11M | 2.75
L11Y | 2.75
L11P | 2.07
L11F | 2.25
D14G | 1.15
D14I | 2.73
D14R | 2.93
D14Q | 2.21
D14N | 1.75
D14P | 2.1
D14E | 2.24
D14Y | 1.14
D14M | 3.39
D14W | 1.32
Q3Y | 1.4
Q3T | 1.2
Q3G | 2.66
Q3A | 1.98
Q3R | 3.08
Q3P | 3.53
Q3I | 1.68
Q3M | 3.04

Variant | protein stability index
Q3K | 1.97
Q3L | 1.93
Q3N | 2.36
Q3E | 2.58
G10A | 1.24
G10M | 2.02
G10I | 1.65
G10D | 2.35
G10Q | 2.53
G10W | 2.15
G10E | 2.64
L4S | 3.01
L4E | 3.75
L4D | 4.69
L4N | 3.83
L4H | 3.26
L4R | 3.19
L4Q | 3.48
L4I | 1.49
L4T | 3.18
L4P | 2.42
L4W | 2.65
L4M | 2.03
L4C | 1.96
L4V | 1.81

Variant | protein stability index
L4F | 2.97
V16S | 1.84
V16Y | 2.57
V16Q | 2.95
V16E | 3.21
V16L | 1.59
V16H | 1.74
V16F | 2.28
V16M | 1.81
V16I | 2.38
V16W | 1.46
V16D | 2.87
V16C | 1.78
V16N | 2.62
V16P | 1.64
V16T | 2.51
L1S | 4.1
L1N | 2.96
L1K | 3.5
L1H | 3.85
L1P | 4.19
L1R | 3.76
L1E | 5.29
L1Q | 3.83
L1A | 3.3

Variant | protein stability index
L1F | 1.12
L1Y | 2.22
L1V | 2.52
L1C | 2.92
L1I | 1.72
L1T | 3.66
E12D | 2.23
E12T | 2.02
E12Y | 2.73
E12Q | 2.26
E12V | 2.79
E12P | 1.8
E12H | 1.35
A6F | 1.95
A6G | 2.84
A6W | 3.19
A6I | 1.43
A6D | 2
A6V | 2.4
A6R | 1.32
A6Y | 2.03
A6H | 2.47
A6T | 3.11
A6S | 3.27
A6Q | 1.54

Variant | protein stability index
A6P | 3.61
A6N | 2.19
A6M | 1.36
A13S | 2.29
A13L | 1.45
A13W | 1.01
A13Q | 3.12
A13I | 1.34
A13H | 1.68
A13C | 2.08
A13N | 2.56
A13Y | 2.01
A13K | 2.52
A13M | 2.79
A13E | 2.97
A13G | 1.87
A13V | 2.35
R17E | 1.86
R17N | 3.03
R17C | 2.04
R17K | 1.86
R17H | 2.93
R17Q | 3.04
R17L | 1.98
R17P | 3.52

Variant | protein stability index
R17G | 2.55
R17I | 1.82
R17F | 2.12
R17M | 1.79
Q2T | 2.61
Q2L | 1.41
Q2Y | 1.24
Q2E | 2.63
Q2P | 3.05
Q2W | 1.28
Q2K | 1.38
Q2S | 2.63
Q2I | 1.3
Q2M | 1.74
Q2F | 3.06
Q2N | 3.27
Q2G | 2.38
Q2C | 3.55
Q2R | 1.82
Q9D | 2.86
Q9S | 1.37
Q9T | 1.04
Q9K | 1.87
Q9C | 3.05
Q9G | 2.28

Variant | protein stability index
Q9E | 1.6
Q9H | 2.42
Q9R | 1.17
Q9W | 1.86
Q9A | 1.43
Q9P | 2.8
R7K | 2.28
R7D | 3.89
R7V | 2.03
R7N | 2.93
R7L | 3.52
R7E | 4.03
R7P | 2.59
R7Y | 1.73
R7I | 2.57
R7H | 2.91
R7Q | 3.33
R7G | 3.55
R7S | 2.72
R7W | 2.28
R7T | 2.52
R7F | 2.09
R7A | 2.12
